This is an account of results in paper PMC3834829, “A signature motif mediating selective interactions of BCL11A with the NR2E/F subfamily of orphan nuclear receptors” (Nucleic Acids Research, 2013).

B1: LexA-BCL11A-(310–325) [not stated] / AAD-COUP-TFI-LBD-(151–467) [not stated] (parent complex)
chain 1: PPAMDFSRRLRELAGN
chain 2: MRREAVQRGRMPPTQPNPGQYALTNGDPLNGHCYLSGYISLLLRAEPYPTSRYGSQCMQPNNIMGIENICELAARLLFSAVEWARNIPFFPDLQITDQVSLLRLTWSELFVLNAAQCSMPLHVAPLLAAAGLHASPMSADRVVAFMDHIRIFQEQVEKLKALHVDSAEYSCLKAIVLFTSDACGLSDAAHIESLQEKSQCALEEYVRSQYPNQPSRFGKLLLRLPSLRTVSSSVIEQLFFVRLVGKTPIETLIRDMLLSGSSFNWPYMSIQCS
B2: AAD-COUP-TFII-LBD-(144–414) [not stated] / LexA-BCL11A-(651–670) [not stated] (parent complex)
chain 1: MRREAVQRGRMPPTQPTHGQFALTNGDPLNCHSYLSGYISLLLRAEPYPTSRFGSQCMQPNNIMGIENICELAARMLFSAVEWARNIPFFPDLQITDQVALLRLTWSELFVLNAAQCSMPLHVAPLLAAAGLHASPMSADRVVAFMDHIRIFQEQVEKLKALHVDSAEYSCLKAIVLFTSDACGLSDVAHVESLQEKSQCALEEYVRSQYPNQPTRFGKLLLRLPSLRTVSSSVIEQLFFVRLVGKTPIETLIRDMLLSGSSFNWPYMAIQ
chain 2: NTENVYSQWLAGYAASRQLK
B3: LexA-NSD1-(790–818) [not stated] / AAD-ERα-LBD-(282–595) [not stated] (parent complex)
chain 1: SSQNHIPIEPDYKFSTLLMMLKDMHDSKT
chain 2: SAGDMRAANLWPSPLMIKRSKKNSLALSLTADQMVSALLDAEPPILYSEYDPTRPFSEASMMGLLTNLADRELVHMINWAKRVPGFVDLTLHDQVHLLECAWLEILMIGLVWRSMEHPGKLLFAPNLLLDRNQGKCVEGMVEIFDMLLATSSRFRMMNLQGEEFVCLKSIILLNSGVYTFLSSTLKSLEEKDHIHRVLDKITDTLIHLMAKAGLTLQQQHQRLAQLLLILSHIRHMSNKGMEHLYSMKCKNVVPLYDLLLEMLDAHRLHAPTSRGGASVEETDQSHLATAGSTSSHSLQKYYITGEAEGFPATV
B4: LexA-BCL11A-(651–670) [not stated] / AAD-COUP-TFI-LBD-(151–467) [not stated] (parent complex)
chain 1: NTENVYSQWLAGYAASRQLK
chain 2: B1 chain 2

In one test the parent is B1. Nature of the test: yeast two-hybrid; read off a plot.
chain 1 PPAMDFSARLRELAGN [chain 1 R8A]: the response was about 900 nmol/mg/min.
On to chain 1 PPAMDFARRLRELAGN [chain 1 S7A], for which the response was about 100 nmol/mg/min.
Still for that read-out and setting: the figure for chain 1 PPAMDFSRRARELAGN [chain 1 L10A] is about 0 nmol/mg/min; for chain 1 PPAMDFSRRLREAAGN [chain 1 L13A] it is about 0 nmol/mg/min.
Same read-out and setting: the figure for chain 1 PPAMDFSRRLAELAGN [chain 1 R11A] is about 670 nmol/mg/min; for chain 1 PPAMDASRRLRELAGN [chain 1 F6A] it is about 0 nmol/mg/min.

The next test covers variants of B2. Nature of the test: yeast two-hybrid; read off a plot.
In the case of chain 1 MRREAVQRGRMPPTQPTHGQFALTNGDPLNCHSYLSGYISLLLRAEPYPTSRFGSQCMQPNNIMGIENICELAARMLFSAVEWARNIPFFPDLQITDQVALLALTWSELFVLNAAQCSMPLHVAPLLAAAGLHASPMSADRVVAFMDHIRIFQEQVEKLKALHVDSAEYSCLKAIVLFTSDACGLSDVAHVESLQEKSQCALEEYVRSQYPNQPTRFGKLLLRLPSLRTVSSSVIEQLFFVRLVGKTPIETLIRDMLLSGSSFNWPYMAIQ [chain 1 R103A], the response was about 1900 nmol/mg/min.
With chain 1 MRREAVQRGRMPPTQPTHGQFALTNGDPLNCHSYLSGYISLLLRAEPYPTSRFGSQCMQPNNIMGIENICELAARMLFSAVEWAANIPFFPDLQITDQVALLRLTWSELFVLNAAQCSMPLHVAPLLAAAGLHASPMSADRVVAFMDHIRIFQEQVEKLKALHVDSAEYSCLKAIVLFTSDACGLSDVAHVESLQEKSQCALEEYVRSQYPNQPTRFGKLLLRLPSLRTVSSSVIEQLFFVRLVGKTPIETLIRDMLLSGSSFNWPYMAIQ [chain 1 R85A], the response was about 1200 nmol/mg/min.
The same measure, in the same setting: the figure for chain 1 MRREAVQRGRMPPTQPTHGQFALTNGDPLNCHSYLSGYISLLLRAEPYPTSRFGSQCMQPNNIMGIENICELAARMLFSAVEWARNIPFFPDLQITDQAALLRLTWSELFVLNAAQCSMPLHVAPLLAAAGLHASPMSADRVVAFMDHIRIFQEQVEKLKALHVDSAEYSCLKAIVLFTSDACGLSDVAHVESLQEKSQCALEEYVRSQYPNQPTRFGKLLLRLPSLRTVSSSVIEQLFFVRLVGKTPIETLIRDMLLSGSSFNWPYMAIQ [chain 1 V99A] is about 2700 nmol/mg/min; for chain 1 MRREAVQRGRMPPTQPTHGQFALTNGDPLNCHSYLSGYISLLLRAEPYPTSRFGSQCMQPNNIMGIENICELAARMLASAVEWARNIPFFPDLQITDQVALLRLTWSELFVLNAAQCSMPLHVAPLLAAAGLHASPMSADRVVAFMDHIRIFQEQVEKLKALHVDSAEYSCLKAIVLFTSDACGLSDVAHVESLQEKSQCALEEYVRSQYPNQPTRFGKLLLRLPSLRTVSSSVIEQLFFVRLVGKTPIETLIRDMLLSGSSFNWPYMAIQ [chain 1 F78A] it is about 40 nmol/mg/min; for chain 1 MRREAVQRGRMPPTQPTHGQFALTNGDPLNCHSYLSGYISLLLRAEPYPTSRFGSQCMQPNNIMGIENICELAARMLFSAAEWARNIPFFPDLQITDQVALLRLTWSELFVLNAAQCSMPLHVAPLLAAAGLHASPMSADRVVAFMDHIRIFQEQVEKLKALHVDSAEYSCLKAIVLFTSDACGLSDVAHVESLQEKSQCALEEYVRSQYPNQPTRFGKLLLRLPSLRTVSSSVIEQLFFVRLVGKTPIETLIRDMLLSGSSFNWPYMAIQ [chain 1 V81A] it is about 20 nmol/mg/min.
Turning to chain 1 MRREAVQRGRMPPTQPTHGQFALTNGDPLNCHSYLSGYISLLLRAEPYPTSRFGSQCMQPNNIMGIENICELAARMLFSAVEWARNIPFFPDLQATDQVALLRLTWSELFVLNAAQCSMPLHVAPLLAAAGLHASPMSADRVVAFMDHIRIFQEQVEKLKALHVDSAEYSCLKAIVLFTSDACGLSDVAHVESLQEKSQCALEEYVRSQYPNQPTRFGKLLLRLPSLRTVSSSVIEQLFFVRLVGKTPIETLIRDMLLSGSSFNWPYMAIQ [chain 1 I95A], the response is about 2900 nmol/mg/min.

In another test the parent is B3. As to the kind of experiment: yeast two-hybrid; + 1µM E2; read off a plot.
In the case of chain 1 SSQNHIPIEPDYKFSTLLMMLKAMHDSKT [chain 1 D23A], the response was about 1700 nmol/mg/min.
As to chain 1 SSQNHIPIEPDYKFSTLLMMAKDMHDSKT [chain 1 L21A], the response is about 0 nmol/mg/min.
Same read-out and setting: for chain 1 SSQNHIPIEPDYKFSTLLMMLADMHDSKT [chain 1 K22A] the value was about 2500 nmol/mg/min.
The same measure, in the same setting: for chain 1 SSQNHIPIEPDYKFSTLAMMLKDMHDSKT [chain 1 L18A] the value was about 1800 nmol/mg/min.
Still for that read-out and setting: the figure for chain 1 SSQNHIPIEPDYKFSTLLAMLKDMHDSKT [chain 1 M19A] is about 2700 nmol/mg/min; for chain 1 SSQNHIPIEPDYKFSTALMMLKDMHDSKT [chain 1 L17A] it is about 0 nmol/mg/min.
As to chain 1 SSQNHIPIEPDYKASTLLMMLKDMHDSKT [chain 1 F14A], the response is about 2400 nmol/mg/min.
chain 1 SSQNHIPIEPDYKFSTLLMALKDMHDSKT [chain 1 M20A]: the response was about 0 nmol/mg/min.

The variants in the next test derive from B4. Nature of the test: yeast two-hybrid; read off a plot.
In the case of chain 1 NTENVYSQWLAGAAASRQLK [chain 1 Y13A], the response is about 0 nmol/mg/min.
Same read-out and setting: for chain 1 NTENVYSQALAGYAASRQLK [chain 1 W9A] the value was about 0 nmol/mg/min; for chain 1 NTENVASQWLAGYAASRQLK [chain 1 Y6A], about 50 nmol/mg/min; for chain 1 NTENVYAQWLAGYAASRQLK [chain 1 S7A], about 0 nmol/mg/min.
Turning to chain 1 NTENVYSQWLAAYAASRQLK [chain 1 G12A], the response is about 2300 nmol/mg/min.
Same read-out and setting: the figure for chain 1 NTENVYSAWLAGYAASRQLK [chain 1 Q8A] is about 920 nmol/mg/min.
